Reference: patent US20060110388A1 (APPLIED MOLECULAR EVOLUTION, published 2006)
Changes are numbered by the printed parent chain. Values joined by “and” are separate entries in the source; they are usually repeats but may differ in a detail not shown here. Identical values can stand only once.

Tests used:
[1] = target: T1, β Amyloid peptide 1-40 (human, UniProt P05067 672-711); assay: BIAcore, mAb captured by anti-mouse Fc, Aβ 1-40 injected, first set of preparations
T1 construct: domain: β Amyloid peptide 1-40; Biotinylated peptide 1-40 (Biosource) on avidin Sepharose only captured free antibody in KinExA; also called Aβ 1-40; human Aβ (1-40)
T1 sequence (P05067 672-711 limits assumed): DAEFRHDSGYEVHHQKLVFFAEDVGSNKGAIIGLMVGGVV
Protocol: (§1) BIAcore™ is an automated biosensor system that measures molecular interactions (Karlsson, et al. (1991) J. Immunol. Methods 145: 229-240). BIAcore™ analyses described herein were carried out at 25° C. In these experiments, antibody was immobilized at low density on a BIAcore™ CM5 or B1 chip. For the m266 antibody goat anti-mouse Fc (Jackson Immunoresearch) immobilized on CM5 in flow cell 2 was used for measuring binding constants. Goat anti-mouse was used as control antibody in flow cell 1. For the humanized antibodies, protein A or protein A/G was immobilized via amine coupling to flow cells 1 and 2 of a B1 or CM5 sensor chip.
(§2) Antibody was then captured only to flow cell 2 at desired levels (usually a 10-60 second injection of antibody) and allowed to stabilize for 5 minutes. For these experiments, a fresh aliquot of Aβ 1-40 was thawed and then diluted 1:10 in HBS-EP running buffer. The 1:10 dilution was used to make up a 200 nM Aβ solution which was serially diluted (1:2 dilutions) to a lowest concentration of 6.25 nM. Each concentration was injected over the surface for 5 minutes at a flow rate of 50 μl/min (250 μl total). The Aβ and antibody were eluted from both flow cells with a 40s injection of glycine pH 1.5. The signal is allowed to stabilize for 2 minutes before the next cycle. […] The data was analyzed using the Biaevalution™ software. […]

[2] = target: T1, β Amyloid peptide 1-40; assay: KinExA, mAb; m266 is the reference
Protocol: (§3) For KinExA™ kₒₙ and koff measurements, antigen and antibody were prepared as described above. Antigen and antibody samples at 2× active concentration were prepared in PBSA with 0.2% BSA. Samples were mixed 1:1 and the timing for the experiment started. Typical 1× concentrations were 1 nM antibody active site concentration ([…]) and 2 nM antigen (8.6 ng/mL). A KinExA™ instrument (Sapidyne) and a kineticsdirect run file were used to follow the reaction. Time for each measurement was determined using the manufacturer's instructions. Free antibody remaining in the reaction was captured using β amyloid coated beads packed into the flow cell washed with PBSA and detected at each time point using 1:250 Goat anti-human Cy5 (Jackson) in PBSA. The flow cell was then flushed and recharged with beads for the next measurement, the process continued until a complete decay curve obtained. The data was analyzed using the KinExA™ Inject software.
(§4) Association rate constants (kₒₙ) of m266 and antibodies of the present invention with Aβ were determined by KinExA™, using methods as described above in Example 1. The results of two separate kₒₙ determinations by KinExA™, in which separate preparations of antibodies were used, are provided in Tables 7 and 8.

[3] = target: T1, β Amyloid peptide 1-40; assay: KinExA, mAb, equilibration 16 h
Protocol: (§5) Typical 1× concentrations were 10 pM of antibody active sites (0.75 ng/mL) and an upper antigen concentration of 100 pM (0.43 ng/mL). […] A KinExA™ instrument (Sapidyne) and standard KD run file were then used to determine the KD of the system. Briefly, the KinExA™ flow cell was charged with the β Amyloid peptide coated beads and washed with PBSA. For the first sample, free antibody in solution was captured by the beads washed with PBSA and detected using 1:250 Goat anti-human Cy5 (Jackson Immunochemicals) in PBSA. The flow cell was then flushed, re-charged with beads and the next sample analyzed. The process was repeated until all 12 samples were analyzed.
as §3

[4] = target: T1, β Amyloid peptide 1-40; assay: KinExA, mAb, single experiment, separate antibody preparation
Protocol: as §3
(§6) Association rate constants (kₒₙ) of m266 and antibodies of the present invention with Aβ were determined by KinExA™, using methods as described above in Example 1. […]
(§7) ^aNumbers in bold are the averages calculated from individual experiments. ^bA separate preparation of antibodies was used for these experiments. ^cA separate preparation of antigen was used for these experiments.

[5] = target: T1, β Amyloid peptide 1-40; assay: KinExA, mAb, single experiment, separate antigen preparation
Protocol: as §3, §6, §7

[6] = target: T1, β Amyloid peptide 1-40; assay: BIAcore; m266 is the reference
[7] = target: T1, β Amyloid peptide 1-40; assay: KinExA, mAb, single experiment
Protocol: (§8) Typical 1× concentrations were 10 pM of antibody active sites (0.75 ng/mL) and an upper antigen concentration of 100 pM (0.43 ng/mL). The samples were then allowed to equilibrate for 24-72 hours at room temperature. A KinExA™ instrument (Sapidyne) and standard KD run file were then used to determine the KD of the system. Briefly, the KinExA™ flow cell was charged with the β Amyloid peptide coated beads and washed with PBSA. For the first sample, free antibody in solution was captured by the beads washed with PBSA and detected using 1:250 Goat anti-human Cy5 (Jackson Immunochemicals) in PBSA. The flow cell was then flushed, re-charged with beads and the next sample analyzed. The process was repeated until all 12 samples were analyzed.

[8] = target: T1, β Amyloid peptide 1-40; assay: KinExA, mAb, single experiment, separate antibody and antigen preparations
Protocol: as §3, §6, §7

[9] = target: T1, β Amyloid peptide 1-40; assay: KinExA, mAb, average of the experiments
Protocol: as §3, §4

[10] = target: T1, β Amyloid peptide 1-40; assay: KinExA, mAb, single experiment; remark: listed apart in the source
Protocol: as §3, §4

[11] = target: T1, β Amyloid peptide 1-40; assay: KinExA, mAb; m266 is the reference; remark: listed apart in the source
[12] = target: T1, β Amyloid peptide 1-40; assay: KinExA, mAb, average of the experiments; remark: listed apart in the source
Protocol: as §3, §4

[13] = target: T1, β Amyloid peptide 1-40; assay: KinExA, mAb, average of the experiments; remark: listed apart in the source
Protocol: as §8

[14] = target: T1, β Amyloid peptide 1-40; assay: KinExA, mAb, single experiment; remark: listed apart in the source
Protocol: as §3, §4

[15] = target: T1, β Amyloid peptide 1-40; assay: KinExA, Fab, equilibration 16 h
Protocol: as §5, §3

[16] = target: T1, β Amyloid peptide 1-40; assay: KinExA, Fab, equilibration 24 h
Protocol: as §8, §3

[17] = target: T1, β Amyloid peptide 1-40; assay: KinExA, mAb; against m266
Protocol: as §3, §4

[18] = target: T1, β Amyloid peptide 1-40; assay: KinExA, mAb, equilibration 24 h
Protocol: as §8, §3

[19] = target: T1, β Amyloid peptide 1-40; assay: BIAcore, mAb captured, Aβ 1-40 injected, first set of preparations
Protocol: as §1
(§9) Antibody was then captured only to flow cell 2 at desired levels (usually a 10-60 second injection of antibody) and allowed to stabilize for 5 minutes. For these experiments, a fresh aliquot of Aβ 1-40 was thawed and then diluted 1:10 in HBS-EP running buffer. The 1:10 dilution was used to make up a 200 nM Aβ solution which was serially diluted (1:2 dilutions) to a lowest concentration of 6.25 nM. Each concentration was injected over the surface for 5 minutes at a flow rate of 50 μl/min (250 μl total). The Aβ and antibody were eluted from both flow cells with a 40s injection of glycine pH 1.5. The signal is allowed to stabilize for 2 minutes before the next cycle. The data from flow cell 1 is subtracted from flow cell 2 to account for any bulk shifts due to buffer differences or non-specific binding to the sensor chip or Protein A. The various concentrations were injected randomly and each concentration was run in duplicate. Two control runs of buffer only were used to control for any dissociation of antibody from the capture surface. The data was analyzed using the Biaevalution™ software. A 1:1 model with mass transfer and a local Rmax was used as the best fit for the data.
Concentrations of human Aβ (1-40) from 200 nM to 1.6 nM in 2-fold serial dilution were used to obtain on-rate constant. […]

[20] = target: T1, β Amyloid peptide 1-40; assay: BIAcore; against m266
Protocol: as §1, §9
Concentrations of human Aβ (1-40) from 200 nM to 1.6 nM in 2-fold serial dilution were used to obtain on-rate constant. The upper half of Table 6 represents determinations made with a first set of antibody preparations, while the lower half represents determinations made with a second set of antibody preparations

[21] = target: T1, β Amyloid peptide 1-40; assay: KinExA, mAb; against m266; remark: listed apart in the source
Protocol: as §8

[22] = target: T1, β Amyloid peptide 1-40; assay: KinExA, mAb
Protocol: as §8

[23] = target: T1, β Amyloid peptide 1-40; assay: BIAcore, mAb captured, Aβ 1-40 injected, second set of preparations
Protocol: as §1, §2

B1: m266 monoclonal antibody (antibody, V domains shown)
VH: EVKLVESGGGLVQPGGSLKLSCAVSGFTFSRYSMSWVRQTPEKRLELVAQINSVGNSTYYPDTVKGRFTISRDNAEYTLSLQMSGLRSDDTATYYCASGDYWGQGTTLTVSS
VL: DVVMTQTPLSLPVSLGDQASISCRSSQSLIYSDGNAYLHWFLQKPGQSPKLLIYKVSNRFSGVPDRFSGSGSGTDFTLKISRVETEDLGVYFCSQSTHVPWTFGGGTKLEIK
modifications: CDR H2 N-glycosylated at the Asn-Ser-Thr sequence
notes: Captured by goat anti-mouse Fc in BIAcore (mouse Fc); also called mouse antibody 266
kon [1]: 130000 M⁻¹ s⁻¹
Fold increase in kon [2]: 1 fold
Kd [3]: 0.0765 nM
koff [3]: 6.73e-06 s⁻¹
kon [3]: 88000 M⁻¹ s⁻¹
kon [4]: 186000 M⁻¹ s⁻¹
kon [5]: 157000 M⁻¹ s⁻¹
Fold Increase (kon) [6]: 1 fold
Kd [7]: 0.0675 nM and 0.0854 nM
kon [8]: 240000 M⁻¹ s⁻¹
kon [9]: 154000 M⁻¹ s⁻¹
kon [10]: 210000 M⁻¹ s⁻¹ and 240000 M⁻¹ s⁻¹
Fold increase in affinity [11]: 1 fold
kon [12]: 230000 M⁻¹ s⁻¹
Kd [13]: 0.0765 nM
kon [14]: 129000 M⁻¹ s⁻¹ and 127000 M⁻¹ s⁻¹ and 88000 M⁻¹ s⁻¹

B2: m266 Fab fragment (Fab, V domains shown)
VH: B1 VH
VL: B1 VL
Kd [15]: 0.138 nM
koff [15]: 4.96e-05 s⁻¹
kon [15]: 360000 M⁻¹ s⁻¹

B3: 1A1 Fab (Fab, V domains shown)
VH: EVQLVESGGGLVKPGGSLRLSCAASGYTFSRYSMSWVRQAPGKGLEWVGQINIRGNNTYYPDTVKGRFTISRDDSKNTLYLQMNSLKTEDTAVYYCTTGDFWGQGTLVTVSS
VL: DIVMTQTPLSLSVTPGQPASISCSSSQSLIYSDGNAYLHWYLQKPGQSPQLLIYKVSNRFSGVPDRFSGSGSGTDFTLKISRVEAEDVGVYYCTQSTHSPWTFGGGTKVEIK
notes: Fab clone
Kd [16]: 0.0019 nM
koff [16]: 1.6e-06 s⁻¹
kon [16]: 830000 M⁻¹ s⁻¹

B4: 1A1 monoclonal antibody (IgG1) (antibody, V domains shown)
VH: B3 VH
VL: B3 VL
Fold increase in kon [17]: 2 fold
Kd [18]: 0.0012 nM
koff [18]: 1.1e-06 s⁻¹
kon [18]: 880000 M⁻¹ s⁻¹
kon [4]: 762000 M⁻¹ s⁻¹
kon [5]: 976000 M⁻¹ s⁻¹
Kd [7]: 0.0032 nM and 0.0057 nM
kon [8]: 851000 M⁻¹ s⁻¹
kon [9]: 913000 M⁻¹ s⁻¹
kon [10]: 580000 M⁻¹ s⁻¹ and 550000 M⁻¹ s⁻¹ and 390000 M⁻¹ s⁻¹
kon [12]: 510000 M⁻¹ s⁻¹
Kd [13]: 0.0045 nM
kon [19]: 390000 M⁻¹ s⁻¹
Fold Increase (kon) [20]: 3 fold
kon [14]: 1.06e+06 M⁻¹ s⁻¹ and 954000 M⁻¹ s⁻¹ and 912000 M⁻¹ s⁻¹ and 883000 M⁻¹ s⁻¹
Fold increase in affinity [21]: 17 fold

B5: 1A12 Fab (Fab, V domains shown)
VH: B3 VH with Y27F
VL: B3 VL with S24R, T94S
notes: Fab clone
Kd [15]: 0.0108 nM
koff [15]: 1.72e-05 s⁻¹
kon [15]: 1.59e+06 M⁻¹ s⁻¹

B6: 1D4 monoclonal antibody (IgG1) (antibody, V domains shown)
VH: B3 VH with Y27F, I53S, R54Q, N57S, F101R
VL: B3 VL with S24R, T94S
Kd [3]: 6.31 nM
koff [3]: 0.00074 s⁻¹
kon [3]: 120000 M⁻¹ s⁻¹
Kd [22]: 15.1 nM
kon [19]: 470000 M⁻¹ s⁻¹
Fold Increase (kon) [20]: 4 fold
Fold increase in affinity [21]: 0.005 fold

B7: 6C3 monoclonal antibody (IgG1) (antibody, V domains shown)
VH: B3 VH with Y27F, I53S, N57S
VL: B3 VL with S24R
kon [23]: 610000 M⁻¹ s⁻¹
Kd [3]: 0.0079 nM
koff [3]: 1.01e-05 s⁻¹
kon [3]: 1.28e+06 M⁻¹ s⁻¹
Fold Increase (kon) [20]: 5 fold

B8: 1C5 monoclonal antibody (IgG1) (antibody, V domains shown)
VH: B3 VH with Y27F, I53S, R54V, G55A, N57S
VL: B3 VL with S24R, T94S
Kd [3]: 0.973 nM
koff [3]: 0.000371 s⁻¹
kon [3]: 420000 M⁻¹ s⁻¹

B9: 1A12 monoclonal antibody (IgG1) (antibody, V domains shown)
VH: B3 VH with Y27F
VL: B3 VL with S24R, T94S
kon [23]: 410000 M⁻¹ s⁻¹
Fold Increase (kon) [20]: 3 fold
